Results reported in publication PMC4571342 (Molecular Biology of the Cell, 2015).

Target: the molecule itself
Assay: AUC

B1: C-terminal region (amino acids 104–278) of Lnp1 fused to maltose-binding protein (domain or fragment)
chain: FYNNNRLRKLAKLRAIHQKKLEKLKEETHYNATSSIIQRFSSGEDQNDDAMVLLDDELNAKYQELNNLKTELEKFKKESHVKGLKKEDSDAWFDKIISVLAGGNELDSTSSLSPFKKIICPQCHWKSNCYRLASKPIIFICPHCNHKIDEVKEREDAIEAKQPAQPSQSEKEKTK
stoichiometry N: 2
